Test: protease stability score; higher = more stable; yeast display proteolysis, trypsin and chymotrypsin;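 further: log10 excess protease needed over predicted unfolded state with 0 meaning unfolded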
Sequence “DEEIKRHIKEMMEAISHGDPDQLRRLFDPNVDIRVGDKEITGMEEYLHQLKHKLDSAEFEYKHYEVKVRNGSVRARYEYIVRINGRPNSVTAEVEIKMTNGKAKHAVYRFSDEDKKRLEG” has a protease stability score of 0.698. Sequence “DEEILNKAVEALRVEHQGNRKDLKRMFDPNAKRRVGDKTITGMDNLLKELSDKRRHLNVDVKIDSLHAEGNRVELDVSQRQNTNGQPSEFRAKIVITVKNGRMVDVTIHRTK” has a protease stability score of -0.016. Work on “DEEINKQIRTMIESRTHGDEEDELRNADPNAKFRIGDKDYHGKEELKKWVKTQHDQAHVEFIIRSVRVHGNKVSMDMQVVLNVNGRPETIDASMSAEVDNGRFKRIDIHLDPDRVRTALQ” yielded a protease stability score of 1.16. “DEEINTIAEEFMKAFQHNNPDKMRNLADENAQFRIGDDKIHGMETYAKEVKKENREQRVEFQIKDLKVQGNTVDMDVSFEVERNGQPHRFEVKLHFNFHNGKLKTLQWNTDG” gave a protease stability score of -0.078. For “DEEIQKLIDDALKAYERGNEDQQAELFDENARVRIGDQTLHGREDLKEHLKRVKDHINFRIESYDVKVHNGRMHATLTLVMQIDGQPDQWSVHLRADVNNGRIKHFEMDMDPEKQRELTK”, the protease stability score was -0.044. For “DEEIRDEIKKYFKALETGDPDKMREMFDPNAKVQVGDKVYHGMSEAARHWVRRAEKIRIEIQDLNIDVHGEDVVVEQVLVEDKNGRPQRKTERLTMDVEDGRVKRAHRHSVK”, the protease stability score was 0.186. For “DEEIVELIKKVLEAIEEGDETRLKKLFDPNAEFEIGDKKLHGMENAAKEWRKQRQQMEIRIKSVHFEVRGERVIVKFKVEYDHNGRPSTMTVHIVALAHNGKMTYFSQKVTQ”, the protease stability score was 0.826. “DEEIVKLLKRLIKAEKNGNPDEIRKNLDPNVRYVVGERTITGREEFVRDQQRRDDQMRVEFQSVQLRQKGDKAVIHQQAVYRHNGRPKTNHQHISIQAKNGKVKDQKVEVKE” gave a protease stability score of 0.069. In the case of “DEEIVKLVEEQARAEKTNDDKRLNELFDKDAKVDVGDKSYHGTEELHKLVHRTMHRMRFDLRTYRIDHEGDRAVMNYNLVFDINGRPDHYHVIFRAHMHNGRIKHQSVSVDPEQKKRFDS”, the protease stability score is reported as -0.023. Sequence “DEEKAKHRVEEFTQLLQENDWDHLANMADENARVQVGDQVYDGRKDIERWAKQVKERVDNVTVKEMSVSGNKMNANVEFQINGVTVRATIEIDFHNGKAKHMRVDPDVVRKQSR” has a protease stability score of 0.727. For “DEEKAQRLMKTLMDYIKNGNADKAQQMLKEGGKVKFGDEEVEGPEEMKKYVKKFKDKGIETHYKEEKFEGNTATVHTEAKLGNAKVEFEAHYEAKGDKVVRAEVKYDEDQYEKFKKS”, the protease stability score was -0.286. For “DEEKATEQAKEAIKALHTGDPRTMVEMLDKDARLRVGDNEYKGRDKVRNAMEEFTKRADSVRVDSVSVHGDKAVIHFKVRYNGQTIEVVLSLSVTNGRIVKAELDYRDEDTLRRLQK”, the protease stability score was 1.11. With “DEEKDEDFARKVLQAVQTGDHDKIKKMADPNASATIGDKTWHGREQLSEAIRRWKEEADRVDVKSVSVQGDRASADMKVQHNGKMTDVRVFVEASNGRLKKLEIDTK” the protease stability score was 1.16. In the case of “DEEKDEDVARQVAHAAATGDTKRLVELMRDNVRFQIGDKTFSGRENLSKAMERIDKHVDHLEVKSIEAHGDTVRADVTMTVNGKTHVVKIEAVVHNGHARELVLHDR”, the protease stability score is reported as 0.06. Sequence “DEEKDEKIRKWQTNVKHGNEDEIRKNADKDAHVHVGDKQYHGHHRIRKLMTNERRKMRVDQKIETVSANNGRATVIVSATFDVNGQPLTDRENVVLIMHNGKIQEVRVDMDPDLHRQLQS” has a protease stability score of -0.51. For “DEEKDQKLATDLSDVIKTGDKEKMVKMADPNARIIVGDRVYHGREVILRWVRTLRERVDRIQIDSYDARDGKVRIIFQVRFDGRTTKIDLVVQYDNGHAKKIEVREK”, the protease stability score was 0.075. For “DEEKEATKQVSEWIENMKSGDEDRLRELADKNAKVRYGDEEVHGMDQAAERWRNQRQKYDSLEVEVRDLKNHNGQVVVDQVERFNHNGKTDQRRVIITMERRPNHFVVQEVVQP”, the protease stability score was -0.331. “DEEKEDKLLLKFARVVLQNNPEDLTRLMDPNAHLEVGDQTWHGREQVSDVLSKFAKRVDEVEVEDYDKRGNDLKVVMTLNINGKNIKVNLTFVVSNGRVTNVRLDPEAQKKIEK” gave a protease stability score of 0.37. Work on “DEEKEETTVEKLAKAVNTGDPDQIEDLADKDVRATIGDRQVHGREEMDRNMKEWEDKIDHLELKSVDVQGESAHANLDQRHNGRHVRMVAIAHVENGRAVEVVFRDQ” yielded a protease stability score of -0.157. In the case of “DEEKEFHKMIKELDKVAKRNDEQSVQNLADKDVEVTYGDKSYHGREVLRRMFRDQLTRADKVRITMKSYTVRGDKAHAVLNVVLDHNGRQEHIDVKVTAQADNGRVRLKHVNIP”, the protease stability score is reported as -0.039. With “DEEKEKEAADRASTNDPDEFRKMVDEDARVVVGEKQWHGREKVQKFYEDQKKRIDHLRVEHVDKDGNRVVITQFYQVNGVRVHAIFIITVHNGRLKMRSVQFTDEHAERRMKKAVS” the protease stability score was 0.528. Sequence “DEEKEKRTARQVADVLRSGNPDEMMKLADKDAEVRVGDHVLHGREEISKLMHELRRRIDHLEIKHVEVDNGSVNIVYVVRHNGKTEVVVLHVDFHNGKIREMTVRSG” has a protease stability score of 1.36. “DEEKENRDIQTLMKNMVTGNEQEVMKNADKNVNLVVGDKTYHGREKIREFVRQLRERADHQEIKSVHATNGRAQADMVVNVNGKDIRFTVTMEASNGKAKHIQFDPNFFRKIQS” showed a protease stability score of -0.079. For “DEEKEREMFKEFLNAFKSGDPDKLRKRMRQNVTLVYGDKSLHGRERAAKWFSELVKRVDHIEIESVKTDENHFDADVHLNVNGQNVIVHIRAKVENGRIVKVQYEYRDESQRRKLEK”, the protease stability score was 1.18. “DEEKHAESAIHHIIKVFKENNPDQFRRNADPNVKVNVGEHEVDGRDDLAKYMVDEANRVDHASYEIVHLDVRGDKARARVRVIVKFDGQERKYEYVFVFVEQNGEVVITKVQHQ” showed a protease stability score of 1.1. For “DEEKHAKEMADRFRKILDNGNEHSVEKMFDENARMSVGDRTIHGREKIAKKLITDVRRVDHLQVKVLSYHAHGDKIDLKVQQTLVVNGEDETRRYQMHLTRVNGRFVAVDAREQ”, the protease stability score was -0.07. In the case of “DEEKHAKEVLDKFLKIAQEGDPKKMHELVDPNATFQVGDKEVHGRESAIESLQKFLEKVDHMRLEITEVRVRGNKFNIVAKLRADINGQKVDKRLIIVFTHHNGRLQMSHLRMD”, the protease stability score is reported as 2.34. With “DEEKHDDFARKLVRAVQSNDFRQQEKMFRQDVRMRVGDKEVHGREQFRDWLRTLDEEVDRYEVKSVTAQGDKVKIVAVFRINGKQFTLTVTIHVSNGKAVNMRINPDQQRQQER” the protease stability score was 0.104. In the case of “DEEKHKQKLRKFAKDFVEGDPEEISKNVDEDVKVHIGDQDVSGREEAMKVIEEIKKRADHIQITSVEASNGRLRINVVIQVNGRNVTAHVTVDADNGRVKKVTMDPDQVRKLKS”, the protease stability score is reported as 0.827. Sequence “DEEKIAQKAVDRVEEAMNRGDPDTMKHLLDKDARITYGDQQYHGREEVIKFMDEFVENVDHVNVEFKEVEVHNGRARASARVVYTHNGQSHDVKLEVVFLIQGDEVRLTHLHYG” has a protease stability score of 2.11. Sequence “DEEKIARHVVRTWMENLKTGNFKEIEKMIDKDVEFEIGDKTVTGREEVRKRRKHEKDQADHIEVQVHDVRARGDKVNIDVVMEINNNGRTTTRRFVLVLSIHNGHAKIKMVTQG” has a protease stability score of 1.09. In the case of “DEEKIDRLLHEVVKAYLSGHSEKLKKLLKEDGQLHALSQTYHGKEQVMKVAEEFKRYGVELQIQDQKTEGDTLKVKAQAHKGGTTWEFEVKVKADGGKADELTIKVSEEAHKMIQRG”, the protease stability score is reported as -0.298. In the case of “DEEKIKQLLQKMIQYYVSGNKDHLKQLGKDDVQLHAADQTYHGLDQLLKVAEQFKKYGVKLEVKDVKVDGNTIHADVEVTMGGTQWTFKVTAEADGGKVDKVQFDVSEEAKKRIQKG”, the protease stability score is reported as 0.959. With “DEEKILKIIDRAVKAIQNGNEEEIRKLGMPNGEAQVGNDRNHGQDALVVMVKMYQKLGNEFEYKEKREEGDQVTTVVQVTFGGTTVEYEVNVQAEGGHIKRWEVRVDETFMKHVEKS” the protease stability score was -0.125. With “DEEKILQDLIKTYQDLAKTNDFESMAKEADEDAHVNIGDKEVHGRESLNKHFRQLQKEVDHVEVDVRDYRVHGDKFEIKFVVNNQRDGQTDRKTVRIEYVQNGDKVRAKSFTTG” the protease stability score was -0.176. “DEEKILRVLKEVVKAIQNGNKEEVRKKGKPDVEVQLADERNRGVDQLVRLAEFDKKLGVQFEYKETRQKGGKMTTVVEVTLDGTTIRYEVHVEAEGGKVKRWEVRMDKKFIRIAQES” gave a protease stability score of 0.077. For “DEEKKANHFNKEFDRNVQRNNETELRKMVDPNARVNVGEQNYSGRNKMVKIITDWLRKYDKFTIDVRRIDVHGNRIFIDFEMVVVSNGQRRTTEIRVVVEEHNGRLHIRVWEIT”, the protease stability score was 0.516. Sequence “DEEKKARQALKNLVQNLRTGDEDELRKMIDKDATVRVGDEEIHGRERIAKTLLEEVKEVDHFEQHVRSITRDGDKLVIVVTQKNNHNGENQHRTVTIWIHERNGELLIQSMEYK” has a protease stability score of 0.504. Sequence “DEEKKARQLLKRWLRAVSQNDPKKLSEQMDPNARVEYGDKELHGMHQIENWLREQLKHIDHIEIDVKDMTVNGNEAQVQFRFVNRHNGKEDTKEARMQAELHNGTVKVRRIRYS” has a protease stability score of 0.389. “DEEKKARRWFESFIEVFRSNDPDQAKKLADPNVRAEYGDKHYHGREEFMKHFITLAERVDHVDIELHSLRIDGNRIVMNMRYRLRYNGRTESNEVTVILVIKNGKLHIQEVREG” showed a protease stability score of 1.41. Sequence “DEEKKDKASEMVRAEQKNNPDKVNELADKNAKFNIGDKRIHGREHLKKTIETENREARYDIDEVDVRAKNGKVDVKMSMRVRHNGRPDRFHVEQTVRFNNGKAQEVTRHKKK” has a protease stability score of -0.299. For “DEEKKRRVAQKIAKLVQTGDPRDVETMMRDDVRANYGDKEYHGRENVSTFADRQVKKVDHRHIESVKNSGEQLVVDMRFVINGHNVRFRISFEFHNGKIKQANFDPKAIEHQDS”, the protease stability score was -0.176. “DEEKLAENFLETMQNIAREGDEEKMADLFDPNAEIQVGDKSYQGREDVLELNRREFERYDHVRIDVKRFSVKNGQLDAEMSVTFSVNGKTDSHDQRLRATLHNGRLKAKHRTNG” showed a protease stability score of 0.476. For “DEEKLDKVMKMVRDALQKGDQEKAQKLVKPDGHFQVGDQELNGYDQVRKYYKKVKDLGAEAHVKKTDVRGNTFRLEYDARLKGVQVTIRLEVRVKDEKVDEARADMTEDYAKHVTKG”, the protease stability score was 0.53. Work on “DEEKLDVARQYFEAVERGDEDRALELVDKDVRVDVGEKRVRGREEAKTQIRREEEEIRLRVEHVDFTAKGDRVRVRVVQVENINGRPVRFHYTMNMTMHNGRIKRIDVQIPEEVQEQLRG” yielded a protease stability score of -0.146. In the case of “DEEKLEELAEEILQMLQTGDPDQARRMADEDVRAEYGDKQYTGKERLVEVVRKLKDRADHARINSFEVEGENIVADFVMVVDGQERRVRMTARVENGRIKEVRVKTS”, the protease stability score is reported as 0.96. With “DEEKLEKFARNFEKVVERGDEDKFRSQADPNVQAVIGDKRIHGDEHLAHWMNKLRSHIDHFRVVDMRVQGEEIHLDVKFVVDGRRVRFIIEIEVHNGHITRFTVHVTDEEKWRRREK” the protease stability score was 0.335. In the case of “DEEKLHTIAKKAADIVQSGDEEKIIRLADPNAEMRIGDQELHGMDDAKRVLHEFMKRVDHVSVKTWHVQGNRIRLDVKFEVNGRDIRVELDITIENGEIDSMEFDPRARDAQKT”, the protease stability score is reported as 0.183. For “DEEKLKKVIDTLQKALQNGNPDEIVKVIDKTVKFKLGDETFEGQEDARKVIKRLRDQGMEFHVERQEVTGDQAKVQTVWHAGDVEMHMHVTYDVDGDKVKRVEVRWDEEAKKAVKKG”, the protease stability score was 0.562. Work on “DEEKLKRIWQEIMDVWRTNNEDRMTNLFDENATVVVGDETYRGREDVNKALHEFNKRVDNINVTRLDVDGDKANLKAELTYNGRTIDITLRITLRNGRIEEMTVDPEVMKTARS” yielded a protease stability score of 0.71.
